Patent US20110263827A1 (AbbVie / Abbott, published 2011)

T1: PLGF (UniProt P49763-2 21-149, limits assumed, biotinylated)
T1 construct: ELISA antigen; also called P1GF
T1 sequence (looked up): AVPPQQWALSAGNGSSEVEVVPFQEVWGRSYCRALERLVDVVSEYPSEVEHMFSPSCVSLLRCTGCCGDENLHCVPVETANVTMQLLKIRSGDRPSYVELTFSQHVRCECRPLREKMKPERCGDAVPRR


Key:
[1] = target: T2, EGFR (UniProt P00533 25-645, limits assumed, biotinylated); assay: direct bind ELISA, N-term VD;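 note: antibody or DVD-Ig preparations bound to immobilized target antigen on ELISA plates, 1 h at room temperature, TMB detection read as absorbance at 450 nm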
T2 construct: ELISA antigen; construct not described

[2] = target: T1, PLGF; assay: direct bind ELISA, C-term VD;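 note: ELISA with antibody or DVD-Ig preparations applied to target antigen-coated plates for 1 h at room temperature, TMB colour development, absorbance read at 450 nm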
[3] = target: T1, PLGF; assay: direct bind ELISA, N-term VD;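 note: antibody or DVD-Ig preparations bound to immobilized target antigen on ELISA plates, 1 h at room temperature, TMB detection read as absorbance at 450 nm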
[4] = target: T2, EGFR; assay: direct bind ELISA, C-term VD;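 note: ELISA with antibody or DVD-Ig preparations applied to target antigen-coated plates for 1 h at room temperature, TMB colour development, absorbance read at 450 nm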
[5] = target: T3, DLL-4 (UniProt Q9NR61 27-524, limits assumed, biotinylated); assay: direct bind ELISA, N-term VD;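 note: antibody or DVD-Ig preparations bound to immobilized target antigen on ELISA plates, 1 h at room temperature, TMB detection read as absorbance at 450 nm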
T3 construct: ELISA antigen

Row | Binder | EC50 [1] | EC50 [2] | EC50 [3] | EC50 [4] | EC50 [5]
1 | DVD341 (bispecific antibody, DVD-Ig; HC S, LC S; variable parts only) VH: QVQLQESGPGLVKPSQTLSLTCTVSGYSISSDFAWNWIRQPPGKGLEWMGYISYSGNTRYQPSLKSRITISRDTSKNQFFLKLNSVTAADTATYYCVTAGRGFPYWGQGTLVTVSSASTKGPQVQLQQSGAELVKPGASVKISCKASGYTFTDYYINWVKLAPGQGLEWIGWIYPGSGNTKYNEKFKGKATLTIDTSSSTAYMQLSSLTSEDTAVYFCVRDSPFFDYWGQGTLLTVSS VL: DIQMTQSPSSMSVSVGDRVTITCHSSQDINSNIGWLQQKPGKSFKGLIYHGTNLDDGVPSRFSGSGSGTDYTLTISSLQPEDFATYYCVQYAQFPWTFGGGTKLEIKRTVAAPDIVLTQSPDSLAVSLGERVTMNCKSSQSLLNSGMRKSFLAWYQQKPGQSPKLLIYWASTRESGVPDRFTGSGSGTDFTLTISSVQAEDVAVYYCKQSYHLFTFGSGTKLEIKR | 3.41 nM | 0.74 nM |  |  | 
2 | DVD814 (bispecific antibody, DVD-Ig; HC L, LC S; variable parts only) VH: QVQLQQSGAELVKPGASVKISCKASGYTFTDYYINWVKLAPGQGLEWIGWIYPGSGNTKYNEKFKGKATLTIDTSSSTAYMQLSSLTSEDTAVYFCVRDSPFFDYWGQGTLLTVSSASTKGPSVFPLAPQVQLQESGPGLVKPSQTLSLTCTVSGYSISSDFAWNWIRQPPGKGLEWMGYISYSGNTRYQPSLKSRITISRDTSKNQFFLKLNSVTAADTATYYCVTAGRGFPYWGQGTLVTVSS VL: DIVLTQSPDSLAVSLGERVTMNCKSSQSLLNSGMRKSFLAWYQQKPGQSPKLLIYWASTRESGVPDRFTGSGSGTDFTLTISSVQAEDVAVYYCKQSYHLFTFGSGTKLEIKRTVAAPDIQMTQSPSSMSVSVGDRVTITCHSSQDINSNIGWLQQKPGKSFKGLIYHGTNLDDGVPSRFSGSGSGTDYTLTISSLQPEDFATYYCVQYAQFPWTFGGGTKLEIKR |  |  | 0.23 nM | 50.4 nM | 
3 | DVD782 (bispecific antibody, DVD-Ig; HC L, LC L; variable parts only) VH: EVQLVESGGGLVQPGGSLRLSCAASGFTFTDNWISWVRQAPGKGLEWVGYISPNSGFTYYADSVKGRFTISADTSKNTAYLQMNSLRAEDTAVYYCARDNFGGYFDYWGQGTLVTVSSASTKGPSVFPLAPQVQLQESGPGLVKPSQTLSLTCTVSGYSISSDFAWNWIRQPPGKGLEWMGYISYSGNTRYQPSLKSRITISRDTSKNQFFLKLNSVTAADTATYYCVTAGRGFPYWGQGTLVTVSS VL: DIQMTQSPSSLSASVGDRVTITCRASQDVSTAVAWYQQKPGKAPKLLIYSASFLYSGVPSRFSGSGSGTDFTLTISSLQPEDFATTYYCQQSYTGTVTFGQGTKVEIKRTVAAPSVFIFPPDIQMTQSPSSMSVSVGDRVTITCHSSQDINSNIGWLQQKPGKSFKGLIYHGTNLDDGVPSRFSGSGSGTDYTLTISSLQPEDFATYYCVQYAQFPWTFGGGTKLEIKR |  |  |  | 55.2 nM | 0.37 nM
4 | DVD812 (bispecific antibody, DVD-Ig; HC L, LC S; variable parts only) VH: EVQLVESGGGLVQPGGSLRLSCAASGFTFTDNWISWVRQAPGKGLEWVGYISPNSGFTYYADSVKGRFTISADTSKNTAYLQMNSLRAEDTAVYYCARDNFGGYFDYWGQGTLVTVSSASTKGPSVFPLAPQVQLQESGPGLVKPSQTLSLTCTVSGYSISSDFAWNWIRQPPGKGLEWMGYISYSGNTRYQPSLKSRITISRDTSKNQFFLKLNSVTAADTATYYCVTAGRGFPYWGQGTLVTVSS VL: DIQMTQSPSSLSASVGDRVTITCRASQDVSTAVAWYQQKPGKAPKLLIYSASFLYSGVPSRFSGSGSGTDFTLTISSLQPEDFATTYYCQQSYTGTVTFGQGTKVEIKRTVAAPDIQMTQSPSSMSVSVGDRVTITCHSSQDINSNIGWLQQKPGKSFKGLIYHGTNLDDGVPSRFSGSGSGTDYTLTISSLQPEDFATYYCVQYAQFPWTFGGGTKLEIKR |  |  |  | 77.3 nM | 0.39 nM
5 | DVD842 (bispecific antibody, DVD-Ig; HC S, LC L; variable parts only) VH: EVQLVESGGGLVQPGGSLRLSCAASGFTFTDNWISWVRQAPGKGLEWVGYISPNSGFTYYADSVKGRFTISADTSKNTAYLQMNSLRAEDTAVYYCARDNFGGYFDYWGQGTLVTVSSASTKGPQVQLQESGPGLVKPSQTLSLTCTVSGYSISSDFAWNWIRQPPGKGLEWMGYISYSGNTRYQPSLKSRITISRDTSKNQFFLKLNSVTAADTATYYCVTAGRGFPYWGQGTLVTVSS VL: DIQMTQSPSSLSASVGDRVTITCRASQDVSTAVAWYQQKPGKAPKLLIYSASFLYSGVPSRFSGSGSGTDFTLTISSLQPEDFATTYYCQQSYTGTVTFGQGTKVEIKRTVAAPSVFIFPPDIQMTQSPSSMSVSVGDRVTITCHSSQDINSNIGWLQQKPGKSFKGLIYHGTNLDDGVPSRFSGSGSGTDYTLTISSLQPEDFATYYCVQYAQFPWTFGGGTKLEIKR |  |  |  | 51.7 nM | 0.36 nM

The remaining lines, values ahead:

Row | EC50 [1] | EC50 [2] | EC50 [3] | EC50 [4] | EC50 [5] | Binder
6 | 3.88 nM | 0.36 nM |  |  |  | DVD783 (bispecific antibody, DVD-Ig; HC L, LC L; variable parts only) VH: QVQLQESGPGLVKPSQTLSLTCTVSGYSISSDFAWNWIRQPPGKGLEWMGYISYSGNTRYQPSLKSRITISRDTSKNQFFLKLNSVTAADTATYYCVTAGRGFPYWGQGTLVTVSSASTKGPSVFPLAPQVQLQQSGAELVKPGASVKISCKASGYTFTDYYINWVKLAPGQGLEWIGWIYPGSGNTKYNEKFKGKATLTIDTSSSTAYMQLSSLTSEDTAVYFCVRDSPFFDYWGQGTLLTVSS VL: DIQMTQSPSSMSVSVGDRVTITCHSSQDINSNIGWLQQKPGKSFKGLIYHGTNLDDGVPSRFSGSGSGTDYTLTISSLQPEDFATYYCVQYAQFPWTFGGGTKLEIKRTVAAPSVFIFPPDIVLTQSPDSLAVSLGERVTMNCKSSQSLLNSGMRKSFLAWYQQKPGQSPKLLIYWASTRESGVPDRFTGSGSGTDFTLTISSVQAEDVAVYYCKQSYHLFTFGSGTKLEIKR
7 | 3.41 nM | 0.44 nM |  |  |  | DVD813 (bispecific antibody, DVD-Ig; HC L, LC S; variable parts only) VH: QVQLQESGPGLVKPSQTLSLTCTVSGYSISSDFAWNWIRQPPGKGLEWMGYISYSGNTRYQPSLKSRITISRDTSKNQFFLKLNSVTAADTATYYCVTAGRGFPYWGQGTLVTVSSASTKGPSVFPLAPQVQLQQSGAELVKPGASVKISCKASGYTFTDYYINWVKLAPGQGLEWIGWIYPGSGNTKYNEKFKGKATLTIDTSSSTAYMQLSSLTSEDTAVYFCVRDSPFFDYWGQGTLLTVSS VL: DIQMTQSPSSMSVSVGDRVTITCHSSQDINSNIGWLQQKPGKSFKGLIYHGTNLDDGVPSRFSGSGSGTDYTLTISSLQPEDFATYYCVQYAQFPWTFGGGTKLEIKRTVAAPDIVLTQSPDSLAVSLGERVTMNCKSSQSLLNSGMRKSFLAWYQQKPGQSPKLLIYWASTRESGVPDRFTGSGSGTDFTLTISSVQAEDVAVYYCKQSYHLFTFGSGTKLEIKR
8 | 3.65 nM | 0.37 nM |  |  |  | DVD843 (bispecific antibody, DVD-Ig; HC S, LC L; variable parts only) VH: QVQLQESGPGLVKPSQTLSLTCTVSGYSISSDFAWNWIRQPPGKGLEWMGYISYSGNTRYQPSLKSRITISRDTSKNQFFLKLNSVTAADTATYYCVTAGRGFPYWGQGTLVTVSSASTKGPQVQLQQSGAELVKPGASVKISCKASGYTFTDYYINWVKLAPGQGLEWIGWIYPGSGNTKYNEKFKGKATLTIDTSSSTAYMQLSSLTSEDTAVYFCVRDSPFFDYWGQGTLLTVSS VL: DIQMTQSPSSMSVSVGDRVTITCHSSQDINSNIGWLQQKPGKSFKGLIYHGTNLDDGVPSRFSGSGSGTDYTLTISSLQPEDFATYYCVQYAQFPWTFGGGTKLEIKRTVAAPSVFIFPPDIVLTQSPDSLAVSLGERVTMNCKSSQSLLNSGMRKSFLAWYQQKPGQSPKLLIYWASTRESGVPDRFTGSGSGTDFTLTISSVQAEDVAVYYCKQSYHLFTFGSGTKLEIKR
9 |  |  | 0.26 nM | 41.4 nM |  | DVD784 (bispecific antibody, DVD-Ig; HC L, LC L; variable parts only) VH: QVQLQQSGAELVKPGASVKISCKASGYTFTDYYINWVKLAPGQGLEWIGWIYPGSGNTKYNEKFKGKATLTIDTSSSTAYMQLSSLTSEDTAVYFCVRDSPFFDYWGQGTLLTVSSASTKGPSVFPLAPQVQLQESGPGLVKPSQTLSLTCTVSGYSISSDFAWNWIRQPPGKGLEWMGYISYSGNTRYQPSLKSRITISRDTSKNQFFLKLNSVTAADTATYYCVTAGRGFPYWGQGTLVTVSS VL: DIVLTQSPDSLAVSLGERVTMNCKSSQSLLNSGMRKSFLAWYQQKPGQSPKLLIYWASTRESGVPDRFTGSGSGTDFTLTISSVQAEDVAVYYCKQSYHLFTFGSGTKLEIKRTVAAPSVFIFPPDIQMTQSPSSMSVSVGDRVTITCHSSQDINSNIGWLQQKPGKSFKGLIYHGTNLDDGVPSRFSGSGSGTDYTLTISSLQPEDFATYYCVQYAQFPWTFGGGTKLEIKR
10 |  |  | 0.23 nM | 45.5 nM |  | DVD844 (bispecific antibody, DVD-Ig; HC S, LC L; variable parts only) VH: QVQLQQSGAELVKPGASVKISCKASGYTFTDYYINWVKLAPGQGLEWIGWIYPGSGNTKYNEKFKGKATLTIDTSSSTAYMQLSSLTSEDTAVYFCVRDSPFFDYWGQGTLLTVSSASTKGPQVQLQESGPGLVKPSQTLSLTCTVSGYSISSDFAWNWIRQPPGKGLEWMGYISYSGNTRYQPSLKSRITISRDTSKNQFFLKLNSVTAADTATYYCVTAGRGFPYWGQGTLVTVSS VL: DIVLTQSPDSLAVSLGERVTMNCKSSQSLLNSGMRKSFLAWYQQKPGQSPKLLIYWASTRESGVPDRFTGSGSGTDFTLTISSVQAEDVAVYYCKQSYHLFTFGSGTKLEIKRTVAAPSVFIFPPDIQMTQSPSSMSVSVGDRVTITCHSSQDINSNIGWLQQKPGKSFKGLIYHGTNLDDGVPSRFSGSGSGTDYTLTISSLQPEDFATYYCVQYAQFPWTFGGGTKLEIKR
11 |  |  |  | 189 nM | 0.32 nM | DVD340 (bispecific antibody, DVD-Ig; HC S, LC S; variable parts only) VH: EVQLVESGGGLVQPGGSLRLSCAASGFTFTDNWISWVRQAPGKGLEWVGYISPNSGFTYYADSVKGRFTISADTSKNTAYLQMNSLRAEDTAVYYCARDNFGGYFDYWGQGTLVTVSSASTKGPQVQLQESGPGLVKPSQTLSLTCTVSGYSISSDFAWNWIRQPPGKGLEWMGYISYSGNTRYQPSLKSRITISRDTSKNQFFLKLNSVTAADTATYYCVTAGRGFPYWGQGTLVTVSS VL: DIQMTQSPSSLSASVGDRVTITCRASQDVSTAVAWYQQKPGKAPKLLIYSASFLYSGVPSRFSGSGSGTDFTLTISSLQPEDFATTYYCQQSYTGTVTFGQGTKVEIKRTVAAPDIQMTQSPSSMSVSVGDRVTITCHSSQDINSNIGWLQQKPGKSFKGLIYHGTNLDDGVPSRFSGSGSGTDYTLTISSLQPEDFATYYCVQYAQFPWTFGGGTKLEIKR
